# According to patent US20220315554A1, “COMPOUNDS COMPRISING A […] LIGAND AND USE THEREOF” (priority 2019, published 2022):
# Assays:
# [1] = target: T1, Recombinant human FAP (R&D systems, #3715-SE) (human)
# T1 sequence: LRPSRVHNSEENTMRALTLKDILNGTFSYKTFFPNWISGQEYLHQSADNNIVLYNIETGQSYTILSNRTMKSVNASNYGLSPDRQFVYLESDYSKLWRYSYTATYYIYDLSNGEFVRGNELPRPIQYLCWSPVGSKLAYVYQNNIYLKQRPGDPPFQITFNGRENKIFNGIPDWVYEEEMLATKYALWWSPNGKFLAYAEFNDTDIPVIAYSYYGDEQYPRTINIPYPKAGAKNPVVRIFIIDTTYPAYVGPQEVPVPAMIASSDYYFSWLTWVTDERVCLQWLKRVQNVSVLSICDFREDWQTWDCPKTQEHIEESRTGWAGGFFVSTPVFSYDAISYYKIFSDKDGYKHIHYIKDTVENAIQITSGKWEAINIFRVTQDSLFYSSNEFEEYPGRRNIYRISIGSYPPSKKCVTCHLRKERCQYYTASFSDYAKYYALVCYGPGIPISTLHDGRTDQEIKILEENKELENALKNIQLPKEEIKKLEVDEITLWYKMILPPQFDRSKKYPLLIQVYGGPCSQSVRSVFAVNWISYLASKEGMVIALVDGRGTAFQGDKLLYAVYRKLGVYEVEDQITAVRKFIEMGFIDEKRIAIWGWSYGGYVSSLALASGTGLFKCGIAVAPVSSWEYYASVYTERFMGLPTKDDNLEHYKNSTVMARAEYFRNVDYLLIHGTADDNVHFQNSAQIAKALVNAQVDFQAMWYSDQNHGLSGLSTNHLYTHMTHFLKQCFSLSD
# [2] = target: human fibroblast activation protein (FAP) on FAP-expressing human WI-38 fibroblasts (human); assay: competition FACS, WI-38 cells, vs Cy5-labeled compound; A: pIC50 >8.0
Substance,pIC50 Category (Activity) [1] [pIC50],pIC50 Category (FACS) [2] [pIC50]
Ac-Met-[Cys(3MeBn)-Gly-Pro-Thr-Glu-Phe-Cys]-Asp-His-Phe-Arg-Asp-NH2 (peptide),> 8,> 8
Ac-Met-[Cys(3MeBn)-Pro-Pro-Thr-Glu-Phe-Cys]-Asp-Ala-Phe-Arg-Asp-NH2 (peptide),–,> 8
Ac-Met-[Cys(3MeBn)-Pro-Pro-Thr-Glu-Phe-Cys]-Asp-His-Aic-Arg-Asp-NH2 (peptide),> 8,> 8
Ac-Met-[Cys(3MeBn)-Pro-Pro-Thr-Glu-Phe-Cys]-Asp-His-Ala-Arg-Asp-NH2 (peptide),> 8,> 8
Ac-Met-[Cys(3MeBn)-Pro-Pro-Thr-Glu-Phe-Cys]-Asp-His-Amf-Arg-Asp-NH2 (peptide),> 8,> 8
Ac-Met-[Cys(3MeBn)-Pro-Pro-Thr-Glu-Phe-Cys]-Asp-His-Mpa-Arg-Asp-NH2 (peptide),> 8,> 8
Ac-Met-[Cys(3MeBn)-Pro-Pro-Thr-Glu-Phe-Cys]-Asp-His-Nmf-Arg-Asp-NH2 (peptide),> 8,> 8
Ac-Met-[Cys(3MeBn)-Pro-Pro-Thr-Glu-Phe-Cys]-Asp-His-Phe-Arg-Ala-NH2 (peptide),> 8,> 8
Ac-Met-[Cys(3MeBn)-Pro-Pro-Thr-Glu-Phe-Cys]-Asp-His-Phe-Arg-Asp-NH2 (peptide),> 8,> 8
Ac-Met-[Cys(3MeBn)-Pro-Pro-Thr-Glu-Phe-Cys]-Asp-His-Phe-Arg-NH2 (peptide),> 8,> 8
Ac-Met-[Cys(3MeBn)-Pro-Pro-Thr-Glu-Phe-Cys]-Asp-His-Phe-Arg-asp-NH2 (peptide),> 8,> 8
Ac-Met-[Cys(3MeBn)-Pro-Pro-Thr-Glu-Phe-Cys]-Asp-His-Phe-arg-Asp-NH2 (peptide),> 8,> 8
Ac-Met-[Cys(3MeBn)-Pro-Pro-Thr-Glu-Phe-Cys]-Asp-His-Ppa-Arg-Asp-NH2 (peptide),> 8,> 8
Ac-Met-[Cys(3MeBn)-Pro-Pro-Thr-Glu-Phe-Cys]-Asp-His-Tic-Arg-Asp-NH2 (peptide),> 8,> 8
Ac-Met-[Cys(3MeBn)-Pro-Pro-Thr-Glu-Phe-Cys]-Asp-His-phe-Arg-Asp-NH2 (peptide),> 8,> 8
Ac-Met-[Cys(3MeBn)-Pro-Pro-Thr-Glu-Phe-Cys]-Asp-his-Phe-Arg-Asp-NH2 (peptide),> 8,> 8
Ac-Met-[Cys(3MeBn)-Pro-Pro-Thr-Glu-Thi-Cys]-Asp-His-Phe-Arg-Asp-NH2 (peptide),> 8,> 8
Ac-Met-[cys(3MeBn)-Pro-Pro-Thr-Glu-Phe-Cys]-Asp-His-Phe-Arg-Asp-NH2 (peptide),> 8,> 8
Ac-met-[Cys(3MeBn)-Pro-Pro-Thr-Glu-Phe-Cys]-Asp-His-Phe-Arg-Asp-NH2 (peptide),> 8,> 8
DOTA-Ttds-Met-[Cys(3MeBn)-Pro-Pro-Thr-Glu-Phe-Cys]-Asp-His-Phe-Arg-Asp-NH2 (peptide),> 8,> 8
DOTA-Ttds-Nle-[Cys(3MeBn)-Pro-Pro-Thr-Gln-Phe-Cys]-Asp-NH2 (peptide),> 8,> 8
DOTA-Ttds-Nle-[Cys(3MeBn)-Pro-Pro-Thr-Gln-Phe-Cys]-Bal-OH (peptide),> 8,> 8

Substance,pIC50 Category (Activity) [1] [pIC50],pIC50 Category (FACS) [2] [pIC50]
DOTA-Ttds-Nle-[Cys(3MeBn)-Pro-Pro-Thr-Glu-Phe-Cys]-Asp-His-Phe-Arg-Asp-NH2 (peptide),> 8,> 8
DOTA-Ttds-Nle-[Cys(3MeBn)-Pro-Pro-Thr-Glu-Phe-Cys]-Asp-NH2 (peptide),> 8,–
DOTA-Ttds-Nle-[Cys(3MeBn)-Pro-Pro-Thr-Glu-Phe-Cys]-Asp-Pamb-Arg-NH2 (peptide),> 8,> 8
H-Met-[Cys(3MeBn)-Pro-Pro-Thr-Glu-Phe-Cys]-Asp-His-Phe-Arg-Asp-Ttds-Lys(Bio)-NH2 (peptide),> 8,> 8
H-met-[Cys(3MeBn)-Pro-Pro-Thr-Glu-Phe-Cys]-Asp-His-Phe-Arg-Asp-NH2 (peptide),> 8,> 8
Hex-[Cys(3MeBn)-Pro-Pro-Ala-Glu-Phe-Cys]-NH2 (peptide),< 6,–
Hex-[Cys(3MeBn)-Pro-Pro-Thr-Ala-Phe-Cys]-NH2 (peptide),< 6,–
Hex-[Cys(3MeBn)-Pro-Pro-Thr-Gln-Otf-Cys]-NH2 (peptide),> 8,–
Hex-[Cys(3MeBn)-Pro-Pro-Thr-Gln-Phe-Cys]-Asp-Ttds-Lys(DOTA)-NH2 (peptide),> 8,> 8
Hex-[Cys(3MeBn)-Pro-Pro-Thr-Gln-Phe-Cys]-Bhk(DOTA)-OH (peptide),> 8,> 8
Hex-[Cys(3MeBn)-Pro-Pro-Thr-Gln-Phe-Cys]-Bhk(DOTA-Ttds)-OH (peptide),> 8,> 8
Hex-[Cys(3MeBn)-Pro-Pro-Thr-Glu-Phe-Cys]-Asp-Arg-NH2 (peptide),> 8,> 8
Hex-[Cys(3MeBn)-Pro-Pro-Thr-Glu-Phe-Cys]-Asp-Cmp-Arg-NH2 (peptide),> 8,> 8
Hex-[Cys(3MeBn)-Pro-Pro-Thr-Glu-Phe-Cys]-Asp-Gab-Arg-NH2 (peptide),> 8,> 8
Hex-[Cys(3MeBn)-Pro-Pro-Thr-Glu-Phe-Cys]-Asp-His-Nmf-Arg-Ttds-Lys(DOTA)-NH2 (peptide),> 8,> 8
Hex-[Cys(3MeBn)-Pro-Pro-Thr-Glu-Phe-Cys]-Asp-His-Phe-Arg-Asp-Ttds-Lys(DOTA)-NH2 (peptide),> 8,> 8
Hex-[Cys(3MeBn)-Pro-Pro-Thr-Glu-Phe-Cys]-Asp-His-Ppa-arg-Ttds-Lys(DOTA)-NH2 (peptide),> 8,> 8
Hex-[Cys(3MeBn)-Pro-Pro-Thr-Glu-Phe-Cys]-Asp-His-phe-Arg-Ttds-Lys(DOTA)-NH2 (peptide),> 8,> 8
Hex-[Cys(3MeBn)-Pro-Pro-Thr-Glu-Phe-Cys]-Asp-Mamb-Arg-NH2 (peptide),> 8,> 8
Hex-[Cys(3MeBn)-Pro-Pro-Thr-Glu-Phe-Cys]-Bal-OH (peptide),–,> 8
Hex-[Cys(3MeBn)-Pro-Pro-Thr-Glu-Phe-Cys]-Pamb-Arg-NH2 (peptide),> 8,–
